The supplement of paper PMC10567573

B1: NCK2 (parent)
chain: YVERKNSLKKGSLVKNLKDTLGLG
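Note: lentivirally expressed fusions sorted by FACS into six bins by GFP to DsRed ratio, PSI derived from sequencing read proportions per bin multiplied by bin number.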

Variants of: B1
Test: protein stability index of a GFP-peptide fusion (GPS, HEK-293T) (PSI 1-6); higher = more stable
Conditions: c terminus: a fixed tail appended
K18F showed a protein stability index of 1.33.
K18P showed a protein stability index of 2.56.
K18I showed a protein stability index of 2.84.
Variant K18Y has a protein stability index of 2.41.
K18S gave a protein stability index of 2.07.
Variant K18E has a protein stability index of 2.46.
With K18A the protein stability index was 2.25.
With K18M the protein stability index was 1.72.
With K18C the protein stability index was 2.94.
Work on K18L yielded a protein stability index of 2.08.
In the case of K18H, the protein stability index is reported as 2.6.
For K18N, the protein stability index was 2.3.
With K18Q the protein stability index was 2.48.
For K18W, the protein stability index was 1.8.
Variant K18G has a protein stability index of 1.84.
For K18T, the protein stability index was 2.65.
Work on K18V yielded a protein stability index of 2.42.
K18R gave a protein stability index of 2.46.
K18D gave a protein stability index of 2.39.
In the case of G24P, the protein stability index is reported as 2.28.
For G24Y, the protein stability index was 1.67.
With G24N the protein stability index was 1.98.
G24C showed a protein stability index of 2.2.
For G24L, the protein stability index was 1.28.
G24S showed a protein stability index of 2.58.
Variant G24W has a protein stability index of 1.97.
G24M showed a protein stability index of 2.09.
With G24I the protein stability index was 1.8.
For G24H, the protein stability index was 2.43.
In the case of G24K, the protein stability index is reported as 2.13.
Variant G24F has a protein stability index of 1.48.
With G24Q the protein stability index was 2.59.
For G24D, the protein stability index was 2.8.
With G24T the protein stability index was 2.36.
With G24E the protein stability index was 3.21.
G24A showed a protein stability index of 2.36.
Variant G24V has a protein stability index of 1.67.
Work on G24R yielded a protein stability index of 2.19.
With L17S the protein stability index was 2.41.
For L17I, the protein stability index was 2.43.
With L17N the protein stability index was 2.77.
Work on L17R yielded a protein stability index of 2.58.
L17E gave a protein stability index of 2.85.
For L17H, the protein stability index was 2.34.
For L17T, the protein stability index was 2.79.
Work on L17D yielded a protein stability index of 2.92.
With L17F the protein stability index was 1.87.
L17V showed a protein stability index of 2.8.
Work on L17P yielded a protein stability index of 2.13.
For L17M, the protein stability index was 2.78.
Work on L17K yielded a protein stability index of 3.
In the case of L17W, the protein stability index is reported as 1.69.
For L17G, the protein stability index was 2.88.
Variant L17A has a protein stability index of 2.62.
L17Y gave a protein stability index of 2.73.
For L17C, the protein stability index was 2.55.
L17Q showed a protein stability index of 3.16.
Variant S12K has a protein stability index of 2.71.
Work on S12Y yielded a protein stability index of 2.19.
S12Q gave a protein stability index of 2.27.
In the case of S12M, the protein stability index is reported as 1.75.
Variant S12V has a protein stability index of 2.38.
In the case of S12A, the protein stability index is reported as 2.22.
For S12P, the protein stability index was 2.31.
Work on S12D yielded a protein stability index of 2.79.
S12R gave a protein stability index of 2.22.
Work on S12I yielded a protein stability index of 2.46.
S12E showed a protein stability index of 2.4.
S12F gave a protein stability index of 2.53.
S12L gave a protein stability index of 1.64.
S12N showed a protein stability index of 2.63.
S12T gave a protein stability index of 2.01.
Work on S12G yielded a protein stability index of 2.07.
S12H gave a protein stability index of 1.98.
S12C showed a protein stability index of 2.13.
S12W gave a protein stability index of 2.17.
Work on K10L yielded a protein stability index of 2.17.
In the case of K10M, the protein stability index is reported as 1.94.
Work on K10N yielded a protein stability index of 1.83.
With K10F the protein stability index was 2.48.
With K10W the protein stability index was 1.78.
K10Y showed a protein stability index of 1.68.
K10T showed a protein stability index of 1.82.
K10G gave a protein stability index of 1.93.
K10H showed a protein stability index of 1.82.
K10E gave a protein stability index of 2.29.
With K10P the protein stability index was 1.88.
For K10I, the protein stability index was 1.89.
Work on K10S yielded a protein stability index of 2.31.
Variant K10R has a protein stability index of 2.17.
K10Q gave a protein stability index of 2.59.
Variant K10A has a protein stability index of 2.11.
K10C gave a protein stability index of 2.29.
K10V showed a protein stability index of 2.04.
Work on K10D yielded a protein stability index of 2.56.
Variant K9W has a protein stability index of 2.37.
Work on K9V yielded a protein stability index of 2.48.
Variant K9Y has a protein stability index of 2.28.
For D19K, the protein stability index was 1.91.
For D19L, the protein stability index was 1.4.
Variant D19Q has a protein stability index of 2.21.
In the case of D19Y, the protein stability index is reported as 1.49.
D19I gave a protein stability index of 2.01.
With D19W the protein stability index was 2.35.
With D19G the protein stability index was 1.92.
D19S gave a protein stability index of 2.16.
D19P showed a protein stability index of 1.95.
D19F showed a protein stability index of 2.24.
D19C showed a protein stability index of 2.11.
In the case of D19A, the protein stability index is reported as 2.
With D19N the protein stability index was 2.84.
D19H showed a protein stability index of 1.47.
With D19M the protein stability index was 2.6.
D19T showed a protein stability index of 1.83.
With D19V the protein stability index was 1.78.
D19E gave a protein stability index of 2.43.
V14K showed a protein stability index of 2.25.
V14W showed a protein stability index of 1.89.
V14Y showed a protein stability index of 1.98.
V14E showed a protein stability index of 2.16.
For V14F, the protein stability index was 1.96.
With V14N the protein stability index was 2.44.
With V14D the protein stability index was 2.84.
With V14I the protein stability index was 2.35.
V14R gave a protein stability index of 2.6.
Variant V14H has a protein stability index of 1.84.
With V14T the protein stability index was 2.66.
Variant V14A has a protein stability index of 2.53.
For V14Q, the protein stability index was 2.74.
Variant V14C has a protein stability index of 2.08.
Work on V14M yielded a protein stability index of 2.46.
With V14G the protein stability index was 2.04.
For V14S, the protein stability index was 2.07.
In the case of V14L, the protein stability index is reported as 2.31.
Variant V14P has a protein stability index of 2.3.
In the case of T20L, the protein stability index is reported as 2.07.
In the case of T20P, the protein stability index is reported as 2.21.
T20K showed a protein stability index of 2.37.
Variant T20E has a protein stability index of 2.17.
Variant T20G has a protein stability index of 2.45.
Work on T20M yielded a protein stability index of 2.
For T20C, the protein stability index was 1.82.
T20I showed a protein stability index of 3.27.
Work on T20H yielded a protein stability index of 1.75.
In the case of T20F, the protein stability index is reported as 1.75.
Variant T20A has a protein stability index of 2.33.
Variant T20Q has a protein stability index of 2.64.
T20N gave a protein stability index of 2.62.
In the case of T20Y, the protein stability index is reported as 1.88.
For T20R, the protein stability index was 1.97.
T20V gave a protein stability index of 1.97.
T20S showed a protein stability index of 2.66.
With T20D the protein stability index was 2.3.
L23A gave a protein stability index of 2.96.
L23H showed a protein stability index of 2.02.
With L23E the protein stability index was 2.86.
Work on L23Y yielded a protein stability index of 1.94.
In the case of L23N, the protein stability index is reported as 2.9.
In the case of L23F, the protein stability index is reported as 2.52.
L23S gave a protein stability index of 3.21.
L23T gave a protein stability index of 2.64.
In the case of L23Q, the protein stability index is reported as 2.33.
L23I gave a protein stability index of 2.37.
For L23V, the protein stability index was 2.57.
For L23G, the protein stability index was 2.94.
Work on L23D yielded a protein stability index of 2.76.
Variant L23C has a protein stability index of 2.53.
